Assay results: paper PMC8881573, “Inhibition of SRP-dependent protein secretion by the bacterial alarmone (p)ppGpp” (Nature Communications, 2022)

Molecular target: ribosomal protein uL29 (B. subtilis (endogenous in the B. …, UniProt P12873 1-66))
Assay: cryo-EM structure; (Bs)SRP pre-incubated with pppGpp, tenfold molar excess over MifM-stalled RNCs, 10 min at room temperature
Conditions: both partners purified

binding result: binds
B1: recombinant (Bs)SRP (Ffh and 6S RNA) (natural protein)
chain: MAFEGLADRLQQTISKIRGKGKVSEQDVKEMMREVRLALLEADVNFKVVKDFVKKVSERAVGQDVMKSLTPGQQVIKVVQEELTELMGGEESKIAVAKRPPTVIMMVGLQGAGKTTTSGKLANLLRKKHNRKPMLVAADIYRPAAIKQLETLGKQLDMPVFSLGDQVSPVEIAKQAIEKAKEEHYDYVILDTAGRLHIDHELMDELTNVKEIANPEEIFLVVDSMTGQDAVNVAKSFNEQLGLTGVVLTKLDGDTRGGAALSIRAVTNTPIKFAGLGEKLDALEPFHPERMASRILGMGDVLTLIEKAQASVDEDKAKELEQKMRTMSFTLDDFLEQLGQVRNMGPLDELLQMMPGAGKMKGLKNIQVDEKQLNHVEAIIKSMTVLEKEQPDIINASRRKRIAKGSGTSVQEVNRLLKQFDEMKKMMKQMTNMSKGKKKGFKLPFM
notes: Ffh, B. subtilis, full length; Ribonucleoprotein: the protein stood with the 6S SRP RNA and with pppGpp or GMPPNP; also called full-length (Bs)Ffh; not shown: 6xHis, N-terminal, cleaved
